Measured values as given in publication PMC9354671, “Novel interaction interfaces mediate the interaction between the NEIL1 DNA glycosylase and mitochondrial transcription factor A” (Frontiers in Cell and Developmental Biology, 2022).

Key:
Conditions in all cases: both partners purified
[1] = target: T1, NEIL1-Δ100, truncated NEIL1 lacking 100 residues from the disordered C-terminal region (human, UniProt Q96FI4 1-290); assay: pull-down; reverse: Flag-tagged TFAM held on anti-FLAG M2 magnetic beads, NEIL1-FL or NEIL1-Δ100 as prey; with and without DNA; eluted with 3X Flag peptide, SDS-PAGE
T1 construct: NEIL1, human, C-terminal 100 residues deleted; Prakash et al., 2017; Sharma et al., 2018; also called NEIL1-∆100; source: E. coli Rosetta 2, purified

[2] = target: T2, full-length NEIL1 (NEIL1-FL), C-terminal His-tagged (human, UniProt Q96FI4 1-390); assay: far-Western, overlay or dot blot; 50 pmol NEIL1 polypeptides separated by SDS-PAGE, on PVDF, denatured in 6M guanidine HCl and refolded; incubated with purified TFAM overnight; detected with anti-TFAM antibody
T2 construct: NEIL1 DNA glycosylase, human, full length (390 residues by the printed tail aa 290-390; theoretical mass with tag 44.75 kDa); pET30a plasmid from the Doublié and Wallace laboratories; Called 'untagged' in the Flag pull-down, meaning without Flag; also called NEIL1 DNA glycosylase; source: E. coli Rosetta 2, purified (Talon beads, HiTrap SPFF ion exchange, Superdex 200); not shown: His tag, …

[3] = target: T1, NEIL1-Δ100, truncated NEIL1 lacking 100 …; assay: as above
NEIL1-∆40 = target: T3, NEIL1-∆40 (human, UniProt Q96FI4 1-350); assay: as above
T3 construct: NEIL1, human, C-terminal 40 residues deleted; source: E. coli Rosetta 2, purified

NEIL1-∆56 = target: T4, NEIL1-∆56 (human, UniProt Q96FI4 1-334); assay: as above
T4 construct: NEIL1, human, C-terminal 56 residues deleted; source: E. coli Rosetta 2, purified

NEIL1-∆78 = target: T5, NEIL1-∆78 (human, UniProt Q96FI4 1-312); assay: as above
T5 construct: NEIL1, human, C-terminal 78 residues deleted; source: E. coli Rosetta 2, purified

Measured: binding result

T1 sequence (Q96FI4 1-290, stated change not applied): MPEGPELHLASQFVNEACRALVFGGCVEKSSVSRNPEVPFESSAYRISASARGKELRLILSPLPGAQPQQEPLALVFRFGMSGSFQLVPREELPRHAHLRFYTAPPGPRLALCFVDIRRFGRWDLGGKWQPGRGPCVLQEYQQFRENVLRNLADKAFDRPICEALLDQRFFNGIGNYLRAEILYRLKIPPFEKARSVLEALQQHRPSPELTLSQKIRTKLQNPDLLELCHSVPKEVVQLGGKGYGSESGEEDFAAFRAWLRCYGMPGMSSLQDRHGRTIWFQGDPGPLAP
T3 sequence (Q96FI4 1-350): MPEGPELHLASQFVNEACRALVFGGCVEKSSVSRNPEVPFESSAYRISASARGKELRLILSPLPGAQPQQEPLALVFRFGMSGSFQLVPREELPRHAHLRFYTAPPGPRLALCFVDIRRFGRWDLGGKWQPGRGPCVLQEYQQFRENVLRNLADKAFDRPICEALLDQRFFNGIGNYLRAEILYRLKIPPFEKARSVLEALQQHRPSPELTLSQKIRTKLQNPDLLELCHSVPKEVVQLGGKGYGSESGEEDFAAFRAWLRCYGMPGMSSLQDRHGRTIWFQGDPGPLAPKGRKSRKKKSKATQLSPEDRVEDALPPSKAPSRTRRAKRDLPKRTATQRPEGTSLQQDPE
T2 sequence (Q96FI4 whole entry, the tested form may be a part): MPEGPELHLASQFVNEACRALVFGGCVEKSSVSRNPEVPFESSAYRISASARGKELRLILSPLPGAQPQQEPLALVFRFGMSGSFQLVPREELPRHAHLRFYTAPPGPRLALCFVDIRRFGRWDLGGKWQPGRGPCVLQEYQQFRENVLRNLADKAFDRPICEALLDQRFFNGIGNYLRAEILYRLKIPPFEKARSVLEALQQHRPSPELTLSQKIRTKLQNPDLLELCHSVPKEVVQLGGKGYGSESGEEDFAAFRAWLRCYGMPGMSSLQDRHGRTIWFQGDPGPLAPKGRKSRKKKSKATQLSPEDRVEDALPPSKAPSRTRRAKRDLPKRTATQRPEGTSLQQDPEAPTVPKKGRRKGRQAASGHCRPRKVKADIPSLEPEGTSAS
T5 sequence (Q96FI4 1-312): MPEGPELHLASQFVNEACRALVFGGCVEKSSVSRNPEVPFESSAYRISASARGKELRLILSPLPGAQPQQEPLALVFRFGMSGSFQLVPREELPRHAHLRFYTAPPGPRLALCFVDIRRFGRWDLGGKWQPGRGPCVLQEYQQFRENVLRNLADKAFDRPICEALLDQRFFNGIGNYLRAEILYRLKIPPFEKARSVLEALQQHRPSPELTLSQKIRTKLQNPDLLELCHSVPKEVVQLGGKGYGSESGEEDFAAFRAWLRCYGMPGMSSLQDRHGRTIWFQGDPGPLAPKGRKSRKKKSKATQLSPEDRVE
T4 sequence (Q96FI4 1-334): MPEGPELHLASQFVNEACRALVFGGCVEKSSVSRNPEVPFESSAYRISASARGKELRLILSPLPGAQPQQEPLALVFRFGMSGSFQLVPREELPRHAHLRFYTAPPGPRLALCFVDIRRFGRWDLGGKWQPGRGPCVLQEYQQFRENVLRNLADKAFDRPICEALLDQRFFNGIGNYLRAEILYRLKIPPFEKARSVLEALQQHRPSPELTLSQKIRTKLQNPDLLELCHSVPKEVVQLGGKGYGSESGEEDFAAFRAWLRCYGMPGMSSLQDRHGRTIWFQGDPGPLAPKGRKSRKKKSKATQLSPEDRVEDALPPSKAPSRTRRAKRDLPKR

B1: Flag-tagged TFAM (natural protein, UniProt Q00059 43-246, looked up)
chain: SSVLASCPKKPVSSYLRFSKEQLPIFKAQNPDAKTTELIRRIAQRWRELPDSKKKIYQDAYRAEWQVYKEEISRFKEQLTPSQIMSLEKEIMDKHLKRKAMTKKKELTLLGKPKRPRSAYNVYVAERFQEAKGDSPQEKLKTVKENWKNLSDSEKELYIQHAKEDETRYHNEMKSWEEQMIEVGRKDLLRRTIKKQRKYGAEEC
notes: also called C-terminal Flag-tagged purified TFAM; source: E. coli, purified; not shown: Flag, C-terminal, kept
binds: [1]

B2: mitochondrial transcription factor A (TFAM) lacking the mitochondrial targeting sequence (natural protein, UniProt Q00059 43-246, looked up)
chain: SSVLASCPKKPVSSYLRFSKEQLPIFKAQNPDAKTTELIRRIAQRWRELPDSKKKIYQDAYRAEWQVYKEEISRFKEQLTPSQIMSLEKEIMDKHLKRKAMTKKKELTLLGKPKRPRSAYNVYVAERFQEAKGDSPQEKLKTVKENWKNLSDSEKELYIQHAKEDETRYHNEMKSWEEQMIEVGRKDLLRRTIKKQRKYGAEEC
notes: theoretical MW 25.6 kDa; Printed domain limits: HMG-box A 43-122, linker 122-152, HMG-box B 152-222, C-terminal tail 222-246; Subcloned into pET30a from a full-length ORF plasmid; also called full-length TFAM monomer (lacking the N-terminal MTS); source: E. coli, purified (as Ngo et al., 2011)
not listed: [1]
binds: all other assays above
